The target of series [1] is T1, hITIP0025-G1T4k.one//VHn-G1T4h.one.H435R.
T1 chain 1: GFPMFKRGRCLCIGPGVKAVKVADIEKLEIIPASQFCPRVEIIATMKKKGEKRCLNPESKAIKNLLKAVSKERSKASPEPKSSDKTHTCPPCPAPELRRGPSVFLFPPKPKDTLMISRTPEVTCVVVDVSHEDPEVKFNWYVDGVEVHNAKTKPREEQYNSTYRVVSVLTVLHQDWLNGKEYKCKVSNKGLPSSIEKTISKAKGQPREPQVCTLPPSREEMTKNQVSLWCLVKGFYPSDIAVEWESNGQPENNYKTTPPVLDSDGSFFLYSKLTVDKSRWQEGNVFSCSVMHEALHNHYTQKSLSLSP
T1 chain 2: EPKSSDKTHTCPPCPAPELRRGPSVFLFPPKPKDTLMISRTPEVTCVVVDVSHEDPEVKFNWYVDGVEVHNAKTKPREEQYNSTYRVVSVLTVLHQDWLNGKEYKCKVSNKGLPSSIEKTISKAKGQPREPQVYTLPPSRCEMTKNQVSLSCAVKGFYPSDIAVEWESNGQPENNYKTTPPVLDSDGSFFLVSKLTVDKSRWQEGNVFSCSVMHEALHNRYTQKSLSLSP

Series [2] concerns the target T2, hITIP0036-G1T4k.one//VHn-G1T4h.one.H435R.
T2 chain 1: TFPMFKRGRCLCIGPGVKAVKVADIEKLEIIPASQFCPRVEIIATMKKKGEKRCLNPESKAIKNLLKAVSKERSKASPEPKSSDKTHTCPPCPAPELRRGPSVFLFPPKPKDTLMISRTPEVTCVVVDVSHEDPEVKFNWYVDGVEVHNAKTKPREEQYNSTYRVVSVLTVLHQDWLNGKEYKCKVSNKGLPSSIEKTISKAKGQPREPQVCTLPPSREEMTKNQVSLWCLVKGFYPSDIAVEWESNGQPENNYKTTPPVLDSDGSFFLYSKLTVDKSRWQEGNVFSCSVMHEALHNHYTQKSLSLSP
T2 chain 2: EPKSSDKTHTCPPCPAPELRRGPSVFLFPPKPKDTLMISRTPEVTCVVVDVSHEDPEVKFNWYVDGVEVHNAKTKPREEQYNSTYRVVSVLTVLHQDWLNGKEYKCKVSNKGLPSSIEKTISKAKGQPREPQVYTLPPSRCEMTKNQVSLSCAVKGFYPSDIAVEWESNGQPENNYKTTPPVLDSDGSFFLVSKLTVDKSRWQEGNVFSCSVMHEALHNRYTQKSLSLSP

In series [3] the target is T3, hCXCL11-G1T4k.one//VHn-G1T4h.one.H435R.
T3 chain 1: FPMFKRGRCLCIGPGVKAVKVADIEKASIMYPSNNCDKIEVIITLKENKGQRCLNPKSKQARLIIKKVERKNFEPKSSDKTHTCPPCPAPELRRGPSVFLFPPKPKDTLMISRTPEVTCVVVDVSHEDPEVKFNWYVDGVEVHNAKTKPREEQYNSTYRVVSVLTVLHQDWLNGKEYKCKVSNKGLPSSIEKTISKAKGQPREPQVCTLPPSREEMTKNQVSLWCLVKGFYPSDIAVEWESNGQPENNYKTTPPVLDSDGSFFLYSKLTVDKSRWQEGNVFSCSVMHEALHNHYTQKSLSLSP
T3 chain 2: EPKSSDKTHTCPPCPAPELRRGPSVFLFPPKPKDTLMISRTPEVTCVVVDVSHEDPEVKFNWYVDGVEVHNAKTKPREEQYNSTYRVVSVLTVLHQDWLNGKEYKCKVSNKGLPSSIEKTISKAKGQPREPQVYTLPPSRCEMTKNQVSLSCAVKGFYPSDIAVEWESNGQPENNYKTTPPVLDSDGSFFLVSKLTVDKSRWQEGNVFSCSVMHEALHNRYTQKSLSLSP

For series [4], the target named is T4, hITIP0037-G1T4k.one//VHn-G1T4h.one.H435R.
T4 chain 1: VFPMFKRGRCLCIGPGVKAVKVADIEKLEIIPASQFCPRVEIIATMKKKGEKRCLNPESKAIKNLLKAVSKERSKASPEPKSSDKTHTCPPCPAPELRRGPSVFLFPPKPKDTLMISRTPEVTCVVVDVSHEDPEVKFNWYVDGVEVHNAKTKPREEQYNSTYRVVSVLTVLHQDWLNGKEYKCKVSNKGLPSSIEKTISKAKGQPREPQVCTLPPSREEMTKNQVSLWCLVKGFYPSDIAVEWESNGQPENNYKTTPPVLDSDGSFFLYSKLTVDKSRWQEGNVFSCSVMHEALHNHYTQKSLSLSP
T4 chain 2: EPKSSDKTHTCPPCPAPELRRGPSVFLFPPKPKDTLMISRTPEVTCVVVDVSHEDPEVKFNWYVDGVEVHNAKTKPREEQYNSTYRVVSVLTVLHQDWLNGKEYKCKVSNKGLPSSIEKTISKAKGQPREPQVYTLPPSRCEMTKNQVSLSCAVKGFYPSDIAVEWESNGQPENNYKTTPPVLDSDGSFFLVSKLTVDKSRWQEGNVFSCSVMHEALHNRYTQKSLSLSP

Series [5] deals with T5, hITIP-G1T4k.one//VHn-G1T4h.one.H435R.
T5 chain 1: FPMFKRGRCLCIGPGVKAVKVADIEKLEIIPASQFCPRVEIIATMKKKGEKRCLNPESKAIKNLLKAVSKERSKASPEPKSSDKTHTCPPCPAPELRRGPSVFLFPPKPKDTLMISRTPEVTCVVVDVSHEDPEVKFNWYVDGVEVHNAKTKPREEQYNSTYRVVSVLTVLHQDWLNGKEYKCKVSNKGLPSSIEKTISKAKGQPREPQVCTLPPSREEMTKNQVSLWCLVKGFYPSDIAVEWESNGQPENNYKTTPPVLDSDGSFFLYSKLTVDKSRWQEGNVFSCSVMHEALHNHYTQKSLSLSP
T5 chain 2: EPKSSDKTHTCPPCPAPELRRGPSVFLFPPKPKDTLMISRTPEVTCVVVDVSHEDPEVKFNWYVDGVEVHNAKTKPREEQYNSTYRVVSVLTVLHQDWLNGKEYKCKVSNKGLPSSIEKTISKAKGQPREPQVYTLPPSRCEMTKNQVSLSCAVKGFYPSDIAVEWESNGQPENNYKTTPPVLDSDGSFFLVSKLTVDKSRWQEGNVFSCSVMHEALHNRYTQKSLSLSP

Series [6] addresses T6, hCXCL11.0022-G1T4k.one//VHn-G1T4h.one.H435R.
T6 chain 1: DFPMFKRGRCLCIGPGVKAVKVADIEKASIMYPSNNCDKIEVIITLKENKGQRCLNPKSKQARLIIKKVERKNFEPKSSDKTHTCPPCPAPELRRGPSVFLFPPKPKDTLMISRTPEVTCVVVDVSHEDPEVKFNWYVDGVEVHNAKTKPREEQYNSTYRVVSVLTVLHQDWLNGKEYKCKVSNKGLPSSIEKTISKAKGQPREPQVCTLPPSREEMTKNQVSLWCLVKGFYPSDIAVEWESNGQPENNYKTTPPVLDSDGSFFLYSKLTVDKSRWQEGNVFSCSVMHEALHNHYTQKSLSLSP
T6 chain 2: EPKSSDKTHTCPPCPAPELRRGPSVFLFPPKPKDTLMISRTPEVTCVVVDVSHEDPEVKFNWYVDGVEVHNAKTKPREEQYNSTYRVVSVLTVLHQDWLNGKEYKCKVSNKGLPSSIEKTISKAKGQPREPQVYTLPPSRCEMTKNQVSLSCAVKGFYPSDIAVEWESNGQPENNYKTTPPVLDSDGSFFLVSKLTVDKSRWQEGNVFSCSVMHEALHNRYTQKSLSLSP

The target in series [7] is T7, hCXCL11.0021-G1T4k.one//VHn-G1T4h.one.H435R.
T7 chain 1: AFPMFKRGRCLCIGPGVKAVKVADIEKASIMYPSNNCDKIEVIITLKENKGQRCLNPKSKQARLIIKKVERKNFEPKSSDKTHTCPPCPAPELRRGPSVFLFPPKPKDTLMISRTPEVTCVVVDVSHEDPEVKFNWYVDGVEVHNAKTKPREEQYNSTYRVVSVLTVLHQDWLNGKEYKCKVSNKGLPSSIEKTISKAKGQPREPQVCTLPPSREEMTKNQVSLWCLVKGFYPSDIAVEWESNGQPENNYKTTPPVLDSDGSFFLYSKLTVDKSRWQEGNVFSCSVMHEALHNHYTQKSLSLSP
T7 chain 2: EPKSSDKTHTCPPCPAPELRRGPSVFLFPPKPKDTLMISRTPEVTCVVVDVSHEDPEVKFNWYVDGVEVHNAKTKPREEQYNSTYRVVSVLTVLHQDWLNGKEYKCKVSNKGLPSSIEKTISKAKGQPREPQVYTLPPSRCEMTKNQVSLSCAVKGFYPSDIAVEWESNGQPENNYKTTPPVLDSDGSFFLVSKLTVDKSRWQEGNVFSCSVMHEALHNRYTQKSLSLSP

Series [8] addresses T8, hCXCL11.0025-G1T4k.one//VHn-G1T4h.one.H435R.
T8 chain 1: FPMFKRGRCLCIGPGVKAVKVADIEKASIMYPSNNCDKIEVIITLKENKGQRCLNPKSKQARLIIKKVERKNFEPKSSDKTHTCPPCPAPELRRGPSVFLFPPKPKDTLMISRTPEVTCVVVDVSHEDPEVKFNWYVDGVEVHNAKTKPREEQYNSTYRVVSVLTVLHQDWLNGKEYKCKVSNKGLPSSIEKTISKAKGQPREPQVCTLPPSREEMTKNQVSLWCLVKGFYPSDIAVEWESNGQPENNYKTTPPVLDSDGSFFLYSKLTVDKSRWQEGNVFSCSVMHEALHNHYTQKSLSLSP
T8 chain 2: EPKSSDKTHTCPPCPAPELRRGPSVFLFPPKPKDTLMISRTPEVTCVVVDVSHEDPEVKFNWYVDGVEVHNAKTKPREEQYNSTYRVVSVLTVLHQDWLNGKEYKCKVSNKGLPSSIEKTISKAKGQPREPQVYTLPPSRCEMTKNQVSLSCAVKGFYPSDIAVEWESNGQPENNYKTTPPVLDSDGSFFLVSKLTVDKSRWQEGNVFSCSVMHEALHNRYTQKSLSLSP

In series [9] the target is T9, hCXCL11.0035-G1T4k.one//VHn-G1T4h.one.H435R.
T9 chain 1: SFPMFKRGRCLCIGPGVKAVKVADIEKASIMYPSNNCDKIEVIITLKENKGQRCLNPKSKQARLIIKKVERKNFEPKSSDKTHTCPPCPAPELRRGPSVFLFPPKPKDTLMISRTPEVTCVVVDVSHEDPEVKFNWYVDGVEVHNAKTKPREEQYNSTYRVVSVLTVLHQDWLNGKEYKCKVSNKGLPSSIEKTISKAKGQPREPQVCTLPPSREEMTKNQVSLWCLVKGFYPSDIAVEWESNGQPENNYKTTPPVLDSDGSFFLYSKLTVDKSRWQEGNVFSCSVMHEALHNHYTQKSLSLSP
T9 chain 2: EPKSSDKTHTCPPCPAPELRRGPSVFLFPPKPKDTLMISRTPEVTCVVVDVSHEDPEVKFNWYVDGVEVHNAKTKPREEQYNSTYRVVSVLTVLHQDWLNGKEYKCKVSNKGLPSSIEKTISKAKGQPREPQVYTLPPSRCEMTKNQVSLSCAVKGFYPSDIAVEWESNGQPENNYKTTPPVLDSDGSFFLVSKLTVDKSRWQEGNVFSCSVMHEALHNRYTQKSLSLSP

B1: human dipeptidyl peptidase IV (human DPPIV, hDPPIV) (Biolegend, 764102) (protein)
chain: NKGTDDATADSRKTYTLTDYLKNTYRLKLYSLRWISDHEYLYKQENNILVFNAEYGNSSVFLENSTFDEFGHSINDYSISPDGQFILLEYNYVKQWRHSYTASYDIYDLNKRQLITEERIPNNTQWVTWSPVGHKLAYVWNNDIYVKIEPNLPSYRITWTGKEDIIYNGITDWVYEEEVFSAYSALWWSPNGTFLAYAQFNDTEVPLIEYSFYSDESLQYPKTVRVPYPKAGAVNPTVKFFVVNTDSLSSVTNATSIQITAPASMLIGDHYLCDVTWATQERISLQWLRRIQNYSVMDICDYDESSGRWNCLVARQHIEMSTTGWVGRFRPSEPHFTLDGNSFYKIISNEEGYRHICYFQIDKKDCTFITKGTWEVIGIEALTSDYLYYISNEYKGMPGGRNLYKIQLSDYTKVTCLSCELNPERCQYYSVSFSKEAKYYQLRCSGPGLPLYTLHSSVNDKGLRVLEDNSALDKMLQNVQMPSKKLDFIILNETKFWYQMILPPHFDKSKKYPLLLDVYAGPCSQKADTVFRLNWATYLASTENIIVASFDGRGSGYQGDKIMHAINRRLGTFEVEDQIEAARQFSKMGFVDNKRIAIWGWSYGGYVTSMVLGSGSGVFKCGIAVAPVSRWEYYDSVYTERYMGLPTPEDNLDHYRNSTVMSRAENFKQVEYLLIHGTADDNVHFQQSAQISKALVDVGVDFQAMWYTDEDHGIASSTAHQHIYTHMSHFIKQCFSLP
For B1, the “cleavage by hDPPIV (LC/MS mass)” value is listed as “showed no mass change suggestive of peptide bond cleavage by hDPPIV treatment” in series [1]; “showed no mass change suggestive of peptide bond cleavage by hDPPIV treatment” in series [2]; “DPPIV treatment reduced each of the masses” in series [3]; “showed no mass change suggestive of peptide bond cleavage by hDPPIV treatment” in series [4]; “DPPIV treatment reduced each of the masses” in [5]; “showed no mass change suggestive of peptide bond cleavage by hDPPIV treatment” in series [6]. The “cleavage by hDPPIV (LC/MS mass)” value in [7], in series [8] and in series [9] was “showed no mass change suggestive of peptide bond cleavage by hDPPIV treatment” in each case.

(Values after patent publication US20260217779.)
